In experiment [1] the target is human Y1 receptor (human) (UniProt P25929). In words: cell-based or functional assay.
For experiment [2], the target named is human Y2 receptor (human) (UniProt P49146). In words: cell-based or functional assay.
Experiment [3] has as its target human Y4 receptor (human) (UniProt P50391). In words: cell-based or functional assay.
Experiment [4] shares this target. As to the kind of experiment: competition binding, displacement of 125I-PP, COS-7 cells with human Y4. Background: In a radioligand displacement assay an active substance lowers the binding of a labelled ligand.
Experiment [5] addresses human Y5 receptor (human) (UniProt Q15761). In words: competition binding, displacement of 125I-NPY, COS-7 cells with human Y5.
UniProt Q15761, sequence (Q15761 whole entry): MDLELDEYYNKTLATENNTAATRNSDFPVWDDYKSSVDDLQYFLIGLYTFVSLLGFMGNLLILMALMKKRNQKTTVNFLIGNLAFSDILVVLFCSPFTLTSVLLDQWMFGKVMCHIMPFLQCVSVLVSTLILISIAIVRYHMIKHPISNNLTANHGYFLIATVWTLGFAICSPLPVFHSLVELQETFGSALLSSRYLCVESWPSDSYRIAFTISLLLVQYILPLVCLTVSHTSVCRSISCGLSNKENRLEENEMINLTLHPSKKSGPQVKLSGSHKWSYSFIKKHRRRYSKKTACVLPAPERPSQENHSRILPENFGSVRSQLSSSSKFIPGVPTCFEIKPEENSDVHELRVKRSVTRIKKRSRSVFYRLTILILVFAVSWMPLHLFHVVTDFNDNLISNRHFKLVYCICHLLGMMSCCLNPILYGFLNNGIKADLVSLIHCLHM
Experiment [6] deals with human Y2 receptor (human) (UniProt P49146). As to the kind of experiment: competition binding, displacement of 125I-PYY, COS-7 cells with human Y2.
The target in experiment [7] is human Y5 receptor (human) (UniProt Q15761). In words: cell-based or functional assay.

A value given as a limit tells only on which side of the number the result lay.

Usually IC50 stands for the point on the concentration scale where inhibition reaches its midpoint. The low end stands for inhibition by little substance, the high end for a need for much substance.

UniProt P50391, sequence (P50391 whole entry): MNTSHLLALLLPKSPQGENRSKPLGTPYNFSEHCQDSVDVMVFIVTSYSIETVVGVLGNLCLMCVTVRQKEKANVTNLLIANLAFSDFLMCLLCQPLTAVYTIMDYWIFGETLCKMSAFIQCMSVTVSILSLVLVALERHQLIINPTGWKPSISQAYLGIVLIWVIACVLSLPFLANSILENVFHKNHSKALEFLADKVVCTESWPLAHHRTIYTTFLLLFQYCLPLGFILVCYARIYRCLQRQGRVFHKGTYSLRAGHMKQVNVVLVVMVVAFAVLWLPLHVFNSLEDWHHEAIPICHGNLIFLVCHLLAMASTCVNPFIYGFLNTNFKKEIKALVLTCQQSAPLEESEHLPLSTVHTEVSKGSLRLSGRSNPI
UniProt P49146, sequence (P49146 whole entry): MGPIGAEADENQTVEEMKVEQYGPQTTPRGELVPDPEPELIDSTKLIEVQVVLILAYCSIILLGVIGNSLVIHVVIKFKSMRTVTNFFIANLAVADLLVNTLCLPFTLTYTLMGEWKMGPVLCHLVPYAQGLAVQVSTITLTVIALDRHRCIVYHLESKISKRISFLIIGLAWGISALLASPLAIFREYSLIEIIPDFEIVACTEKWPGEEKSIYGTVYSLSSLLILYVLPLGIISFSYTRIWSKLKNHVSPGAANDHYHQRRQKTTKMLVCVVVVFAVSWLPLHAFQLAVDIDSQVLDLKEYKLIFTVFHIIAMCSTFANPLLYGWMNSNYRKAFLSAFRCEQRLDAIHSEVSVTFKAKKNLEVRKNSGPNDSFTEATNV
UniProt P25929, sequence (P25929 whole entry): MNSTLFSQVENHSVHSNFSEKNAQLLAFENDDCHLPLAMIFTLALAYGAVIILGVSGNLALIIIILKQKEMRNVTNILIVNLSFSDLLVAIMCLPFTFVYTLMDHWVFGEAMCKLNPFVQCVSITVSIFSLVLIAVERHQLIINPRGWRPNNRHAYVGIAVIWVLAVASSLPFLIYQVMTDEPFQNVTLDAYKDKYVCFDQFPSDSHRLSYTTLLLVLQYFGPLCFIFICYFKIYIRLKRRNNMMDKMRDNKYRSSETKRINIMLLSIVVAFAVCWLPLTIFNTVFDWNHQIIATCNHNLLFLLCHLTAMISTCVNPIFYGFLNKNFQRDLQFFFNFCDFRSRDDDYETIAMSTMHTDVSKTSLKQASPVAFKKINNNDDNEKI

Regarding [Cys2,D-Cys27]PYY2-36 (peptide), the EC50, inositol phosphate turnover (potency assay) in experiment [1] was above 1000 nM; in experiment [2], 1.9 nM; in experiment [3], above 1000 nM. Also, the IC50 was found to be 300 nM in experiment [4], 36 nM in experiment [5] and 0.6 nM in experiment [6].
In the case of [Cys2,D-Cys27]PYY (peptide), the EC50, inositol phosphate turnover (potency assay) in experiment [1] and in experiment [3] was above 1000 nM in each case.
As to [Lys4,Gln34]PP (peptide), the EC50, inositol phosphate turnover (potency assay) was 38 nM in experiment [1], 0.17 nM in experiment [2], 64 nM in experiment [3] and 3.8 nM in experiment [7]. Besides, the IC50 was determined as 6 nM in experiment [4], 0.87 nM in experiment [5] and 0.21 nM in experiment [6].

These data come from patent EP2272524A2.
